According to publication PMC9288967:

Columns and labels:
[1] = biological target: spike RBD of the Alpha variant (B.1.1.7) (SARS-CoV-2) (UniProt P0DTC2); assay: cross-linking
[2] = biological target: spike RBD of the Delta variant (B.1.617.2) (SARS-CoV-2) (UniProt P0DTC2); assay: cross-linking

## mNb6(108FFY) (VHH)
[1]
  kobs (apparent first-order constant of cross-linking): 0.086 h⁻¹
[2]
  kobs (apparent first-order constant of cross-linking): 0.156 h⁻¹
